Measured values taken from article PMC10718521, “Complexity of αvβ6-integrin targeting RGD peptide trimers: emergence of non-specific binding by synergistic interaction” (RSC Medicinal Chemistry, 2023).

Tests used:
[1] = format: physicochemical; settings: pH 7.4
Procedure: The trimers were labeled with ^68Ga for biodistribution and small-animal PET experiments employing a fully automated method.[39] Non-radioactive reference compounds were obtained by complexation of equimolar amounts of ^natGa^3+ in form of the aq. chloride solution.[39] The polarity of the ^68Ga or ^natGa^3+ containing conjugates, respectively, was assessed by two established proxies, namely the n-octanol/water distribution coefficient at pH 7.4, log D7.4, and the retention time tR on a reverse-phase HPLC column with a suitable liquid-phase gradient (10–50% acetonitrile in water with 0.1% trifluoroacetic acid) (see Fig. 2a). […] A measurable decrease of the log D7.4 was only observed for ≥3 Tyr. […]
(§1) Unless otherwise noted, the materials and the instrumentation used (analytical and preparative HPLC, ESI-MS, gamma counter, centrifuge), and the experimental procedures (^68Ga radiolabeling and radio-TLC for quality control, determination of log D7.4, cultivation of H2009 human lung adenocarcinoma cells, generation of tumor xenografts in CB17 SCID mice, small-animal PET, and biodistribution) were described before.[19] All animal experiments have been carried out according to applicable law and institutional guidelines of Technical University of Munich, and were approved by the responsible local authority (Regierung von Oberbayern). The H2009 cells were regularly authenticated and tested for mycoplasma contamination. The affinities of the pentynoic amide functionalized peptides were determined employing a well-established ELISA protocol on immobilized integrins.[36] TRAP-triazide,[38]FF (previously termed AvB6),[32] and YY (also referred to as Tyr2-alkyne)[33] were synthesized as described previously. RP-HPLC for assessment of compound polarity was done on a 150 × 4.6 mm ReproSil-Pur 120 C18-AQ 5 μm column, with a flow of 0.75 mL min^−1 and a gradient of 10–50% MeCN in water, both containing 0.1% trifluoroacetic acid, within 15 min. The required ^natGa-complexes of the peptide trimers were synthesized by reaction with equimolar amounts of aq. GaCl3 as described.[19]

in vivo = assay: in vivo; design: species or system mice; settings: CB17 SCID, mouse, total radioactivity
From the text: The biodistribution of all ^68Ga-labeled peptide trimers was investigated in severe combined immunodeficiency (SCID) mice bearing subcutaneous xenografts of the αvβ6-integrin expressing human lung adenocarcinoma cell line H2009 on their right shoulders.
as §1

[2] = tumor/organ ratio Heart (myocard)
[3] = tumor/organ ratio Large intestine (empty)
[4] = tumor/organ ratio Small intestine (empty)
[5] = tumor/organ ratio Stomach (empty)

Row | Compound | log D7.4 [1] | logD [1] | tissue uptake at 1.5 h (in vivo; Adrenals uptake) | tissue uptake at 1.5 h (in vivo; Blood uptake) | tissue uptake at 1.5 h (in vivo; Heart (myocard) uptake) | tissue uptake at 1.5 h (in vivo; Kidneys uptake) | tissue uptake at 1.5 h (in vivo; Large intestine (empty) uptake) | tissue uptake at 1.5 h (in vivo; Liver uptake) | tissue uptake at 1.5 h (in vivo; Lung uptake) | tissue uptake at 1.5 h (in vivo; Muscle uptake) | tissue uptake at 1.5 h (in vivo; Pancreas uptake) | tissue uptake at 1.5 h (in vivo; Small intestine (empty) uptake) | tissue uptake at 1.5 h (in vivo; Spleen uptake) | tissue uptake at 1.5 h (in vivo; Stomach (empty) uptake) | tissue uptake at 1.5 h (in vivo; Tumor H2009 uptake) | tissue to tissue ratio at 1.5 h (in vivo; tumor/organ ratio Adrenals) | tissue to tissue ratio at 1.5 h (in vivo; tumor/organ ratio Blood) | tissue to tissue ratio at 1.5 h (in vivo; [2]) | tissue to tissue ratio at 1.5 h (in vivo; tumor/organ ratio Kidneys) | tissue to tissue ratio at 1.5 h (in vivo; [3]) | also measured
1 | CC(C)C[C@@H]1NC(=O)[C@H](CC(=O)O)NC(=O)CNC(=O)[C@H](CCCNC(=N)N)NC(=O)[C@H](Cc2ccccc2)NC(=O)[C@H](CCCCNC(=O)CCc2cn(CCCNC(=O)CCP(=O)(O)CN3CCN(CP(=O)(O)CCC(=O)NCCCn4cc(CCC(=O)NCCCC[C@H]5C(=O)N[C@@H](Cc6ccc(O)cc6)C(=O)N[C@@H](CCCNC(=N)N)C(=O)NCC(=O)N[C@@H](CC(=O)O)C(=O)N[C@@H](CC(C)C)C(=O)N[C@@H](C)C(=O)N[C@@H](Cc6ccccc6)C(=O)N6CCC[C@@H]6C(=O)N5C)nn4)CCN(CP(=O)(O)CCC(=O)NCCCn4cc(CCC(=O)NCCCC[C@H]5C(=O)N[C@@H](Cc6ccc(O)cc6)C(=O)N[C@@H](CCCNC(=N)N)C(=O)NCC(=O)N[C@@H](CC(=O)O)C(=O)N[C@@H](CC(C)C)C(=O)N[C@@H](C)C(=O)N[C@@H](Cc6ccccc6)C(=O)N6CCC[C@@H]6C(=O)N5C)nn4)CC3)nn2)N(C)C(=O)[C@H]2CCCN2C(=O)[C@H](Cc2ccccc2)NC(=O)[C@H](C)NC1=O (68Ga complex, metal not drawn) [Y2Y] | −1.4 to −1.5 | -1.5 ± 0.1 | 1.07 ± 0.27 %ID/g | 1.91 ± 0.49 %ID/g | 0.85 ± 0.16 %ID/g | 80.8 ± 5.12 %ID/g | 3.89 ± 0.73 %ID/g | 2.59 ± 0.35 %ID/g | 7.02 ± 1.34 %ID/g | 0.63 ± 0.12 %ID/g | 0.44 ± 0.07 %ID/g | 2.23 ± 0.41 %ID/g | 4.36 ± 0.79 %ID/g | 6.55 ± 1.48 %ID/g | 7.93 ± 0.28 %ID/g | 7.8 ± 1.7 | 4.4 ± 1.1 | 9.6 ± 1.8 | 0.1 | 2.1 ± 0.4 | tissue to tissue ratio at 1.5 h (in vivo; tumor/organ ratio Liver): 3.1 ± 0.3; tissue to tissue ratio at 1.5 h (in vivo; tumor/organ ratio Lung): 1.2 ± 0.2; tissue to tissue ratio at 1.5 h (in vivo; tumor/organ ratio Muscle): 13 ± 2.5; tissue to tissue ratio at 1.5 h (in vivo; tumor/organ ratio Pancreas): 18.2 ± 2.3; tissue to tissue ratio at 1.5 h (in vivo; [4]): 3.6 ± 0.7; tissue to tissue ratio at 1.5 h (in vivo; tumor/organ ratio Spleen): 1.9 ± 0.4; tissue to tissue ratio at 1.5 h (in vivo; [5]): 1.3 ± 0.3
2 | CC(C)C[C@@H]1NC(=O)[C@H](CC(=O)O)NC(=O)CNC(=O)[C@H](CCCNC(=N)N)NC(=O)[C@H](Cc2ccccc2)NC(=O)[C@H](CCCCNC(=O)CCc2cn(CCCNC(=O)CCP(=O)(O)CN3CCN(CP(=O)(O)CCC(=O)NCCCn4cc(CCC(=O)NCCCC[C@H]5C(=O)N[C@@H](Cc6ccccc6)C(=O)N[C@@H](CCCNC(=N)N)C(=O)NCC(=O)N[C@@H](CC(=O)O)C(=O)N[C@@H](CC(C)C)C(=O)N[C@@H](C)C(=O)N[C@@H](Cc6ccccc6)C(=O)N6CCC[C@@H]6C(=O)N5C)nn4)CCN(CP(=O)(O)CCC(=O)NCCCn4cc(CCC(=O)NCCCC[C@H]5C(=O)N[C@@H](Cc6ccc(O)cc6)C(=O)N[C@@H](CCCNC(=N)N)C(=O)NCC(=O)N[C@@H](CC(=O)O)C(=O)N[C@@H](CC(C)C)C(=O)N[C@@H](C)C(=O)N[C@@H](Cc6ccc(O)cc6)C(=O)N6CCC[C@@H]6C(=O)N5C)nn4)CC3)nn2)N(C)C(=O)[C@H]2CCCN2C(=O)[C@H](Cc2ccccc2)NC(=O)[C@H](C)NC1=O (68Ga complex, metal not drawn) [Y2] | −1.4 to −1.5 | -1.5 ± 0.2 | 1.5 ± 1.28 %ID/g | 2.26 ± 0.26 %ID/g | 1.08 ± 0.13 %ID/g | 92 ± 12.2 %ID/g | 3.81 ± 0.53 %ID/g | 3.37 ± 0.68 %ID/g | 4.8 ± 0.5 %ID/g | 0.72 ± 0.15 %ID/g | 0.65 ± 0.12 %ID/g | 2.55 ± 0.27 %ID/g | 2.51 ± 0.33 %ID/g | 7.17 ± 0.58 %ID/g | 7.95 ± 1.02 %ID/g | 8.8 ± 6.2 | 3.5 ± 0.5 | 7.4 ± 0.6 | 0.1 | 2.1 ± 0.2 | tissue to tissue ratio at 1.5 h (in vivo; tumor/organ ratio Liver): 2.4 ± 0.4; tissue to tissue ratio at 1.5 h (in vivo; tumor/organ ratio Lung): 1.7 ± 0.2; tissue to tissue ratio at 1.5 h (in vivo; tumor/organ ratio Muscle): 11.4 ± 2.4; tissue to tissue ratio at 1.5 h (in vivo; tumor/organ ratio Pancreas): 12.7 ± 2.9; tissue to tissue ratio at 1.5 h (in vivo; [4]): 3.1 ± 0.5; tissue to tissue ratio at 1.5 h (in vivo; tumor/organ ratio Spleen): 3.2 ± 0.7; tissue to tissue ratio at 1.5 h (in vivo; [5]): 1.1 ± 0.1
